Assays:
[1] = target: AtBAG5-IQR (AtBAG5-long with Ile57, Gln58 and Arg62 substituted with alanine) (Arabidopsis thaliana, UniProt O65373 49-153, Ile57 to alanine | Gln58 to alanine | Arg62 to alanine); experiment: ITC
AtBAG5-CaM (with Ca2+) = experiment: ITC; with Ca2+ (AtBAG5/holo-CaM complex)
AtBAG5/holo-CaM = AtBAG5/holo-CaM (Arabidopsis thaliana (AtBAG5); Homo …); experiment: ITC; with Ca2+; AtBAG5 pre-bound to holo-CaM

B1: ATPase domain of human Hsp70 (called Hsc70 in the results) (domain or fragment)
chain: not shown
Which results are given for B1?
Kd [1]: 0.48 µM; Kd (AtBAG5-CaM (with Ca2+)): 53.3 µM

B2: ATPase domain of human Hsp70 (called Hsc70 in the results) (domain or fragment)
chain: not shown
modifications: CaM Ca2+-saturated (holo, 4 Ca2+; 10 mM CaCl2). AtBAG5-long limits are printed. CaM is full length with the initiator Met removed by convention. CaM species is not printed: Met144 in mature numbering fits vertebrate CaM rather than plant CaM (Val144).
For B2, which Kd (AtBAG5/holo-CaM) is on record?
Its Kd is 53.3 µM.

From publication PMC4990970 (2016)
